Non-standard residues stand in square brackets, D forms with d. No end group written: not given here. Aib = CC(C)(N)C(=O)O

One assay addresses T1, human GIP receptor (human, UniProt P48546 22-466).
T1 sequence (looked up): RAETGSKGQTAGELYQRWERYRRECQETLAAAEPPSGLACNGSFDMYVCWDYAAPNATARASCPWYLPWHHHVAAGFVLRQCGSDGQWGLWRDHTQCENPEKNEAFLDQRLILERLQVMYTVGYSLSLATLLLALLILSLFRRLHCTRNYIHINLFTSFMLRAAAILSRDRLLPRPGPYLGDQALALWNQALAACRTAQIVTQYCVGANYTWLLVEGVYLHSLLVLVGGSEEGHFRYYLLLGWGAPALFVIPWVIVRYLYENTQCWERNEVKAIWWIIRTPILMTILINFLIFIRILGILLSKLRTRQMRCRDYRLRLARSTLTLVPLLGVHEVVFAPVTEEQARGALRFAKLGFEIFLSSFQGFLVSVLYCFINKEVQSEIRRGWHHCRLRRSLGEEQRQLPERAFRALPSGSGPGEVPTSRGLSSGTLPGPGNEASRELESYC
Briefly: cell-based or functional assay.
Conditions: not given
Consider Y[Aib]EGTFISDYSIYLDKQAA[Aib]EFVNWLLAQKGKKNDWKHNITQC (not fully specified) [GIP derivative of SEQ ID NO: 12], for which the “In vitro activity of GIP derivative compared to human native GIP in human GIP receptor (%) (cAMP EC50, CHO cells expressing human GIP receptor)” value amounted to 49.2%.
On to Y[Aib]EGTFISDYSIAMDAIAQQDFVNWLLAQKPSSGAPPPSC (not fully specified) [GIP derivative of SEQ ID NO: 1], for which the “In vitro activity of GIP derivative compared to human native GIP in human GIP receptor (%) (cAMP EC50, CHO cells expressing human GIP receptor)” value was found to be 49.3%.
On the same count and under the same terms, next, Y[Aib]EGTFISDYSI[Aib]MDAIAQQDFVNWLLAGGPSSGAPPPSC (not fully specified) [GIP derivative of SEQ ID NO: 3]: 15.6%; Y[Aib]EGTFISDYSI[Aib]LDKQAA[Aib]EFVNWLL[Aib]GHPSSGAPPPSC (not fully specified) [GIP derivative of SEQ ID NO: 24]: 183%.
Consider Y[Aib]EGTFISDYSIQMDAIAQQDFVNWLLAGGPSSGAPPPSC (not fully specified) [GIP derivative of SEQ ID NO: 5], for which the “In vitro activity of GIP derivative compared to human native GIP in human GIP receptor (%) (cAMP EC50, CHO cells expressing human GIP receptor)” value worked out at 12.1%.
On the same count and under the same terms, with Y[Aib]EGTFISDYSIAMDGIAQQDFVNWLLAQKPSSGAPPPSC (not fully specified) [GIP derivative of SEQ ID NO: 16] the figure was 11.3%; with Y[Aib]EGTFISDYSIYLDKQAA[Aib]EFVNWLL[Aib]GHPSSGAPPPSC (not fully specified) [GIP derivative of SEQ ID NO: 19], 66.7%; with Y[Aib]EGTFISDYSIYLDKQAA[Aib]EFVNWLLAQKC (not fully specified) [GIP derivative of SEQ ID NO: 13], 31.1%.
The same measure, in the same setting: with Y[Aib]EGTFISDYSIYMDAIAQQDFVNWLLAGGPSSGAPPPSC (not fully specified) [GIP derivative of SEQ ID NO: 4] the figure was 10.5%; with Y[Aib]EGTFISDYSIYLDKQAA[Aib]EFVQWLIAGHPSSGAPPPC (not fully specified) [GIP derivative of SEQ ID NO: 26], 66.7%; with Y[Aib]EGTFISDYSIYLDKQAAQEFVNWLLAQKPSSGAPPPSC (not fully specified) [GIP derivative of SEQ ID NO: 18], 13.6%.
The same measure, in the same setting: next, Y[Aib]EGTFISDYSIALEKQAQQDFVNWLLAGGPSSGAPPPSC (not fully specified) [GIP derivative of SEQ ID NO: 17]: 111%.
Take Y[Aib]EGTFISDYSIYLDKQAQKEFVNWLL[Aib]GGPSSGAPPPSC (not fully specified) [GIP derivative of SEQ ID NO: 23]: the “In vitro activity of GIP derivative compared to human native GIP in human GIP receptor (%) (cAMP EC50, CHO cells expressing human GIP receptor)” value worked out at 87.6%.
Still for that read-out and setting: next, Y[Aib]EGTFISDYSIYLDAQAQQDFVNWLLAGGPSSGAPPPSC (not fully specified) [GIP derivative of SEQ ID NO: 7]: 19.6%; Y[Aib]EGTFISDYSI[Aib]LDKQAA[Aib]EFVNWLL[Aib]GGPSSGAPPPSC (not fully specified) [GIP derivative of SEQ ID NO: 21]: 123%; Y[Aib]EGTFISDYSIAMDAIAQQDFVNWLLAGGPSSGAPPPSC (not fully specified) [GIP derivative of SEQ ID NO: 2]: 13.9%.
Still for that read-out and setting: next, Y[Aib]EGTFISDYSIYLDAQAA[Aib]EFVNWLLAQKC (not fully specified) [GIP derivative of SEQ ID NO: 14]: 17.4%; Y[Aib]EGTFISDYSIYLDKQAA[Aib]EFVQWLI[Aib]GGPSSGAPPPSC (not fully specified) [GIP derivative of SEQ ID NO: 25]: 78.3%.
The same measure, in the same setting: next, Y[Aib]EGTFISDYSIAMDAIAQQDFVNWLLAQKGKKNDWKHNITQC (not fully specified) [GIP derivative of SEQ ID NO: 11]: 122%; Y[Aib]EGTFISDYSIAMDKIAQQDFVNWLLAQKPSSGAPPPSC (not fully specified) [GIP derivative of SEQ ID NO: 15]: 31.1%; Y[Aib]EGTFISDYSIYLDKQAA[Aib]EFVNWLL[Aib]GGPSSGAPPPSC (not fully specified) [GIP derivative of SEQ ID NO: 20]: 75.3%.
Consider Y[Aib]EGTFISDYSIYLDKQAA[Aib]EFVNWLLAGHPSSGAPPPSC (not fully specified) [GIP derivative of SEQ ID NO: 22], for which the “In vitro activity of GIP derivative compared to human native GIP in human GIP receptor (%) (cAMP EC50, CHO cells expressing human GIP receptor)” value worked out at 71.6%.
Same read-out and setting: next, Y[Aib]EGTFISDYSIYLDAQAA[Aib]DFVNWLLAGGPSSGAPPPSC (not fully specified) [GIP derivative of SEQ ID NO: 8]: 1.9%.
The same measure, in the same setting: with Y[Aib]EGTFISDYSIYLDAIAQQDFVNWLLAGGPSSGAPPPSC (not fully specified) [GIP derivative of SEQ ID NO: 6] the figure was 17.4%; with Y[Aib]EGTFISDYSIYLDAQAAKEFIAWLLAGGPSSGAPPPSC (not fully specified) [GIP derivative of SEQ ID NO: 10], 13.9%; with Y[Aib]EGTFISDYSIYLDAQAAKDFVNWLLAGGPSSGAPPPSC (not fully specified) [GIP derivative of SEQ ID NO: 9], 2%.

For the next assay, the target named is T2, human GIP receptor (Homo sapiens, UniProt P48546).
T2 construct: expressed in transfected cells; host or cells: CHO (Chinese hamster ovary) cells
T2 sequence (P48546 22-466): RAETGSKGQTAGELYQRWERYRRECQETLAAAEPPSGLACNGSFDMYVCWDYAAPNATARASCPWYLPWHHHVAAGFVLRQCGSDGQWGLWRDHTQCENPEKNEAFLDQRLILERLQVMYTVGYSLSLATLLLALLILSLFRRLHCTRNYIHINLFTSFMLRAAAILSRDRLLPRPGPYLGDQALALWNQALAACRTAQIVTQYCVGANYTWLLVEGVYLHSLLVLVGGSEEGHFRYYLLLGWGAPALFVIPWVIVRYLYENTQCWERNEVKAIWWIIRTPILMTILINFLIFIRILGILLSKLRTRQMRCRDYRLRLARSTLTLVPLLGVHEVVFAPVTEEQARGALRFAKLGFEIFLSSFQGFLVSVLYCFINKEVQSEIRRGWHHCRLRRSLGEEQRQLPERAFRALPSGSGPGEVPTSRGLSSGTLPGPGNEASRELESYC
The assay can be described thus: In vitro activity of long-acting GIP conjugate: cAMP accumulation (LANCE cAMP kit) in CHO cells expressing human GIP receptor. The following applies: relative potency from cAMP EC50 vs human GIP, PEG-immunoglobulin Fc conjugates. In kind it is cell-based. On the procedure:
To measure the activity of the long-acting GIP conjugates prepared in Example 3, a method of measuring cell activity in vitro using a cell line transformed with the GIP receptor was used in the same manner as in Example 2.
In detail, to measure the activity of the long-acting GIP derivatives in the human GIP receptors, human GIP was serially diluted from 16 nM to 0.000015 nM by 4 folds, and the long-acting GIP derivatives prepared in Example 1 were each serially diluted from 50 nM to 0.000048 nM by 4 folds. The culture medium was removed from the cultured CHO cells where the human GIP receptors were expressed, 5 μl of each of the serially diluted materials was added to the cells, and then, 5 μl of buffer containing cAMP antibody was added thereto, followed by incubation at room temperature for 15 minutes. Next, the cells were lysed by adding 10 μl of detection mix containing cell lysis buffer, and then allowed for a reaction at room temperature for 90 minutes. The cell lysate obtained by the completion of the reaction was applied to the LANCE cAMP kit (PerkinElmer, USA) to calculate the EC50 value through the accumulated cAMP to be compared with each other.
For orientation: cAMP levels reflect the balance of adenylyl cyclase and phosphodiesterase activity.
“YAibEGT FISDYSIALEKQAQQDFVNWLLAGGPSSGAPPPSC (Y[Aib]EGTFISDYSIALEKQAQQDFVNWLLAGGPSSGAPPPSC) [SEQ ID NO: 17]”: the “In vitro activity of long-acting GIP derivative compared to human native GIP in human GIP receptor (%)” value worked out at 153.2%.
Still for that read-out and setting: next, “YAibEGT FISDYSIAMDAIAQQDFVNWLLAQKGKKNDWKHNITQC (Y[Aib]EGTFISDYSIAMDAIAQQDFVNWLLAQKGKKNDWKHNITQC) [SEQ ID NO: 11]”: 84.8%; “YAibEGT FISDY SIAibLD KQAAAib EFVNW LLAibGH PSSGA PPPSC (Y[Aib]EGTFISDYSI[Aib]LDKQAA[Aib]EFVNWLL[Aib]GHPSSGAPPPSC) [SEQ ID NO: 24]”: 123.3%; “YAibEGT FISDY SIAibLD KQAAAib EFVNW LLAibGG PSSGA PPPSC (Y[Aib]EGTFISDYSI[Aib]LDKQAA[Aib]EFVNWLL[Aib]GGPSSGAPPPSC) [SEQ ID NO: 21]”: 148.5%.

The values above are taken from patent US20230381279A1, “PHARMACEUTICAL COMPOSITION FOR PREVENTING OR TREATING LUPUS-RELATED DISEASES COMPRISING GIP DERIVATIVE OR LONG-ACTING CONJUGATE THEREOF” (HANMI PHARM. CO., LTD., priority 2020, published 2023).
